# Source: the RNAGym collection of RNA variant scans (doi:10.1073/pnas.2313332121)
# Fewer inactive variants are shown than the library holds.
# B1: TPR 5TU (parent)
# chain: GGAUCUUCUCGAUCUAACAAAAAAGACAAAUCUGCCACAAAGCUUGAGAGCAUCUUCGGAUGCAGAGGCGGCAGCCUUCGGUGGCGCGAUAGCGCCAACGUUCUCAACUAUGACACGCAAAACGCGUGCUCCGUUGAAUGGAGUUUAUCAUG
# Variants of: B1
# Experiment: polymerase ribozyme fitness, log enrichment relative to wild type (log ratio); higher = more active; in vitro selection for triplet polymerase activity
# How it was run: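 Libraries of mutants in each subunit of a heterodimeric triplet polymerase ribozyme were generated by PCR and transcribed. In triplicate, each went through one in vitro selection round: annealing with biotinylated primer, partner subunit and triplets; frozen incubation at −7 °C; gel excision of extended constructs; streptavidin-bead capture; RT-PCR. Fitness, taken from Illumina sequencing of input and output libraries, is the logarithm of a genotype's enrichment over wild-type enrichment, averaged across replicates with inverse-variance weights. The logarithm is base 2, and genotypes needed ≥10 input reads and ≥1 read per output to be kept.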
row,Variant,polymerase ribozyme fitness (log ratio)
1,A28U G42C U44C C75G C96A A115G,≤ -4.2
2,A29U A41U A47C C114G C132U,≤ -4.2
3,A29C A52G U55A C75G A106U A110G A121U U127A,≤ -4.2
4,A29G A47U A49U G94A C131U,≤ -4.2
5,A28C U78G,≤ -4.2
6,A29G C51G U56A C93A C95G C149G G152A,≤ -4.2
7,A28G G46A C85A A91G,≤ -4.2
8,A28U C54G C72U,≤ -4.2
9,A29U A60G C76A,≤ -4.2
10,A28C G58U A113G A119U,≤ -4.2
11,A28U A30C C79A,≤ -4.2
12,A29G G50A G80U A91C U134A U146C,≤ -4.2
13,C27U U78A C79G A91C C118G,≤ -4.2
14,A29U A41U C69U C95A C118G C125U U148A,≤ -4.2
15,A29G G94U A97G C149U,≤ -4.2
16,A28U C79A A91U C108G U130G G143C,≤ -4.2
17,A29U A107C,≤ -4.2
18,A29C A37U G133A,≤ -4.2
19,A28C G34A C38G C72U C76A C96G U151A,≤ -4.2
20,A28C U82A,≤ -4.2
21,A28G U53G C85A U104G A106G A138U A147G,≤ -4.2

row,Variant,polymerase ribozyme fitness (log ratio)
1,A29G C105G U146G,≤ -4.2
2,A28G U44G A91U C99U,≤ -4.2
3,A28C C43U U56A A107C,≤ -4.2
4,A28G U56A,-3.7
5,A28G A49U U56A A66U U90G A106U C108G A119G,≤ -4.2
6,A28C U44A G59A C125A G143C,≤ -4.2
7,A28U G48A G74C C96U C131A,≤ -4.2
8,A28U U53G A66G C69A C79G G94C C108G C129U A137U,≤ -4.2
9,A28U U56A G81A C95U,≤ -4.2
10,A29U A30C A49G C57U C87A G100A G141A,≤ -4.2
11,A28U A41U C79G G86A G136A G152A,≤ -4.2
12,A28U C76G G92U,≤ -4.2
13,A29C A49U A52C C54A A89C C123A U135G G140C,≤ -4.2
14,A28U U61G C87G,-4.14
15,A29C A89G C95G U139C G140A G141U A142C,≤ -4.2
16,A28U A47C G74C C95U A142C C149A,≤ -4.2
17,A28U C87U A119C A138U G140C,≤ -4.2
18,A29U A30U A37U A47G G50C A97U G100U A106C,≤ -4.2
19,A29G A52C C85A U90C C95G A97G C118A A138C G143U,≤ -4.2
20,A29C U31G C87A U139G,≤ -4.2
21,A28U A29U G65A C95G C105G U111G A137C G152C,≤ -4.2

row,Variant,polymerase ribozyme fitness (log ratio)
1,A28G C93U C105G,≤ -4.2
2,A28C A73C U78G G86C A110U A113U A137C A138U,≤ -4.2
3,C27U U55A G70C A91U A97U A106G,≤ -4.2
4,A28C C57U G59A U78G G86A A115U,≤ -4.2
5,A28C A64U G84A C85G,≤ -4.2
6,A28U,-3.38
7,A28G,-2.24
8,A28C,-3.75
9,A29G A52G,-4.08
10,A28U G68U C99U A110G,≤ -4.2
11,A28U C57U G84U G94A A98U C116A A147C,≤ -4.2
12,A29C G59A G94U U102A A106G G141A,≤ -4.2
13,A28U A37C U55A A106C U134G G140A,≤ -4.2
14,A28C G65U G68A A91U,≤ -4.2
15,A28C G46C C76G U82A A89C G124A,≤ -4.2
16,A29G C96A,-3.46
17,A29G C87A A110C G141U,≤ -4.2
18,A28U U55A C72U U90C A115G,≤ -4.2
19,A29C A49C C57G C132U,≤ -4.2
20,A29G G84U G117A,≤ -4.2
21,A29C A40G C123A U127A,≤ -4.2

row,Variant,polymerase ribozyme fitness (log ratio)
1,A29U A41C A52C C87U U102C G136A G143C U146A,≤ -4.2
2,A28U G50C G83C A110C,≤ -4.2
3,A29U C32A A41U G71C C85U C87U A98C,≤ -4.2
4,A29G U31A C43G,≤ -4.2
5,A28U A66C C72U A91C C114U,≤ -4.2
6,A29G C35G U56G G68A G81A C99A C114A G143C,≤ -4.2
7,A28C G67A G100C A119G C131U U145G,≤ -4.2
8,A29C A41U G81C G86C C105G A106U,≤ -4.2
9,A29C C38G G65U U77A G81C A137G,≤ -4.2
10,A28U A40U G48A A119U U127C U146G,≤ -4.2
11,A28G U53A,-3.62
12,A28C U61G G67A C69A C93G A113U G124U,≤ -4.2
13,A29G A30C G59C U90G C95G G133U,≤ -4.2
14,A29G G59U A60U C114U,≤ -4.2
15,A29G U78G G84C,≤ -4.2
16,A29G U45C A52C U53G U134C G136U,≤ -4.2
17,A28U C75U G84U G86A C93U A106G A113U,≤ -4.2
18,A28U A64G A66U A73U G81U C95U C114U C149A,≤ -4.2
19,A28G A29U C43G A47C G84U A110U,≤ -4.2
20,A29G C51U G62A G84A U139G,≤ -4.2
